B1: Flag-CNK^2–549 [Drosophila] / Myc-MEK [Drosophila] (parent)
chain 1: MSKNKLNLVLPPVNTEATVAAATVAPTPPFKTPSGTDTHSLLGKPKTSIDALTETLEGLDMGDTERKRIKMFLSQKEKIGELSDEDLEKLGELGSGNGGVVMKVRHTHTHLIMARKLIHLEVKPAIKKQILRELKVLHECNFPHIVGFYGAFYSDGEISICMEYMDGGSLDLILKRAGRIPESILGRITLAVLKGLSYLRDNHAIIHRDVKPSNILVNSSGEIKICDFGVSGQLIDSMANSFVGTRSYMSPERLQGTHYSVQSDIWSLGLSLVEMAIGMYPIPPPNTATLESIFADNAEESGQPTDEPRAMAIFELLDYIVNEPPPKLEHKIFSTEFKDFVDICLKKQPDERADLKTLLSHPWIRKAELEEVDISGWVCKTMDLPPSTPKRNTSPN
chain 2: AYINIAEWTPDQVTDWIKGLDESMKGYLYEFSKQEIGGRALLNIRPYELENLGMLRIGHQEIVLEAVENLRNFHYHLKNDNLQFMALHVATAAKNLHRELARNHAESTKIDTRILHDITRTIATLKPLVGSLERTPFRKQEMYREYCGNVLKCGLELATIAHRDRFALQPVPAIRQSAERLENLANFVIQDISDPMVLQPASLNLVTLKKRESELGFNIESSYNGIHRVTDIKYNSPAHNSGKIEDGDEIVQINYQTVVGWQHRTVLEHLREALPDVVLTVKKRPKHTKMFGQIYMQPYRLPSKKRNMAARWAAQMPSPRAAFLTLDTEQLATGGTGSAVPDPSKSLSSEKREVLTKANPVSSASDSDSSCSDIPTPTDPKLAAREIRLYYPKPRALLQRRNTICGCEYLSLKNSDLVVPSWHERKPGIGSPTNCDPGSPSIRDKSISFGYGLEMAARPTTCIGIAGDTSTDKARRMFHEARKLKQLTEDSQREFLVDRYKPGVSKVVRFDAKEDYVMKNEKFICNVENTILETFEPIPFADEGDEDA

Variants of: B1
Test: GST pull-down, immunoblot quantification
Conditions: with Myc-MEK [Drosophila]; S2 cells; GST-HYP + RRKM (Ha-RASV12, Pyo-RAF, V5-KSR, Myc-MEK) co-expressed; captured via GST-HYP; anti-MEK blot; parent: 1

Row | ratio to parent | Variant
1 | 0.28 | chain 2 AYINIAEWTPDQVTDWIKGLDESMKGYLYEFSKQEIGGRALLNIRPYELENLGMLRIGHQEIVLEAVENLRNFHYHLKNDNLQFMALHVATAAKNLHRELARNHAESTKIDTRILHDITRTIATLKPLVGSLERTPFRKQEMYREYCGNVLKCGLELATIAHRDRFALQPVPAIRQSAERLENLANFVIQDISDPEVLQPASLNLVTLKKRESELGFNIESSYNGIHRVTDIKYNSPAHNSGKIEDGDEIVQINYQTVVGWQHRTVLEHLREALPDVVLTVKKRPKHTKMFGQIYMQPYRLPSKKRNMAARWAAQMPSPRAAFLTLDTEQLATGGTGSAVPDPSKSLSSEKREVLTKANPVSSASDSDSSCSDIPTPTDPKLAAREIRLYYPKPRALLQRRNTICGCEYLSLKNSDLVVPSWHERKPGIGSPTNCDPGSPSIRDKSISFGYGLEMAARPTTCIGIAGDTSTDKARRMFHEARKLKQLTEDSQREFLVDRYKPGVSKVVRFDAKEDYVMKNEKFICNVENTILETFEPIPFADEGDEDA [chain 2 M196E]

Same assay, conditions: with Myc-MEK [Drosophila]; S2 cells; GST-HYP, V5-KSR, Myc-MEK co-expressed; captured via GST-HYP; anti-MEK blot; parent: 1

Row | ratio to parent | Variant
2 | 0.23 | chain 2 AYINIAEWTPDQVTDWIKGLDESMKGYLYEFSKQEIGGRALLNIRPYELENLGMLRIGHQEIVLEAVENLRNFHYHLKNDNLQFMALHVATAAKNLHRELARNHAESTKIDTRILHDITRTIATLKPLVGSLERTPFRKQEMYREYCGNVLKCGLELATIAHRDRFALQPVPAIRQSAERLENLANFVIQDISDPEVLQPASLNLVTLKKRESELGFNIESSYNGIHRVTDIKYNSPAHNSGKIEDGDEIVQINYQTVVGWQHRTVLEHLREALPDVVLTVKKRPKHTKMFGQIYMQPYRLPSKKRNMAARWAAQMPSPRAAFLTLDTEQLATGGTGSAVPDPSKSLSSEKREVLTKANPVSSASDSDSSCSDIPTPTDPKLAAREIRLYYPKPRALLQRRNTICGCEYLSLKNSDLVVPSWHERKPGIGSPTNCDPGSPSIRDKSISFGYGLEMAARPTTCIGIAGDTSTDKARRMFHEARKLKQLTEDSQREFLVDRYKPGVSKVVRFDAKEDYVMKNEKFICNVENTILETFEPIPFADEGDEDA [chain 2 M196E]

Same assay, conditions: with Myc-MEK [Drosophila], S2 cells, Flag-CNK2–549, V5-KSR, GST-HYP co-expressed, captured via GST-HYP, anti-Myc (MEK) blot, parent: 1

Row | ratio to parent | Variant
3 | 0.27 | chain 2 AYINIAEWTPDQVTDWIKGLDESMKGYLYEFSKQEIGGRALLNIRPYELENLGMLRIGHQEIVLEAVENLRNFHYHLKNDELQFMALHVATAAKNLHRELARNHAESTKIDTRILHDITRTIATLKPLVGSLERTPFRKQEMYREYCGNVLKCGLELATIAHRDRFALQPVPAIRQSAERLENLANFVIQDISDPMVLQPASLNLVTLKKRESELGFNIESSYNGIHRVTDIKYNSPAHNSGKIEDGDEIVQINYQTVVGWQHRTVLEHLREALPDVVLTVKKRPKHTKMFGQIYMQPYRLPSKKRNMAARWAAQMPSPRAAFLTLDTEQLATGGTGSAVPDPSKSLSSEKREVLTKANPVSSASDSDSSCSDIPTPTDPKLAAREIRLYYPKPRALLQRRNTICGCEYLSLKNSDLVVPSWHERKPGIGSPTNCDPGSPSIRDKSISFGYGLEMAARPTTCIGIAGDTSTDKARRMFHEARKLKQLTEDSQREFLVDRYKPGVSKVVRFDAKEDYVMKNEKFICNVENTILETFEPIPFADEGDEDA [chain 2 N81E]
4 | 0.05 | chain 2 AYINIAEWTPDQVTDWIKGLDESMKGYLYEFSKQEIGGRALLNIRPYELENLGMLRIGHQEIVLEAVENLRNFHYHLKNDWLQFMALHVATAAKNLHRELARNHAESTKIDTRILHDITRTIATLKPLVGSLERTPFRKQEMYREYCGNVLKCGLELATIAHRDRFALQPVPAIRQSAERLENLANFVIQDISDPMVLQPASLNLVTLKKRESELGFNIESSYNGIHRVTDIKYNSPAHNSGKIEDGDEIVQINYQTVVGWQHRTVLEHLREALPDVVLTVKKRPKHTKMFGQIYMQPYRLPSKKRNMAARWAAQMPSPRAAFLTLDTEQLATGGTGSAVPDPSKSLSSEKREVLTKANPVSSASDSDSSCSDIPTPTDPKLAAREIRLYYPKPRALLQRRNTICGCEYLSLKNSDLVVPSWHERKPGIGSPTNCDPGSPSIRDKSISFGYGLEMAARPTTCIGIAGDTSTDKARRMFHEARKLKQLTEDSQREFLVDRYKPGVSKVVRFDAKEDYVMKNEKFICNVENTILETFEPIPFADEGDEDA [chain 2 N81W]
5 | 0.68 | chain 2 AYINIAEWTPDQVTDWIKGLDESMKGYLYEFSKQEIGGRALLNIRPYELENLGMLRIGHQEIVLEAVENLRNFHRHLKNDNLQFMALHVATAAKNLHRELARNHAESTKIDTRILHDITRTIATLKPLVGSLERTPFRKQEMYREYCGNVLKCGLELATIAHRDRFALQPVPAIRQSAERLENLANFVIQDISDPMVLQPASLNLVTLKKRESELGFNIESSYNGIHRVTDIKYNSPAHNSGKIEDGDEIVQINYQTVVGWQHRTVLEHLREALPDVVLTVKKRPKHTKMFGQIYMQPYRLPSKKRNMAARWAAQMPSPRAAFLTLDTEQLATGGTGSAVPDPSKSLSSEKREVLTKANPVSSASDSDSSCSDIPTPTDPKLAAREIRLYYPKPRALLQRRNTICGCEYLSLKNSDLVVPSWHERKPGIGSPTNCDPGSPSIRDKSISFGYGLEMAARPTTCIGIAGDTSTDKARRMFHEARKLKQLTEDSQREFLVDRYKPGVSKVVRFDAKEDYVMKNEKFICNVENTILETFEPIPFADEGDEDA [chain 2 Y75R]
6 | 1.12 | chain 2 AYINIAEWTPDQVTDWIKGLDESMKGYLYEFSKQEIGGRALLNIRPYELENLGMLRIGHQEIVLEAVENLRNFHYHLKNDNLQFMALHVATAAKNLHEELARNHAESTKIDTRILHDITRTIATLKPLVGSLERTPFRKQEMYREYCGNVLKCGLELATIAHRDRFALQPVPAIRQSAERLENLANFVIQDISDPMVLQPASLNLVTLKKRESELGFNIESSYNGIHRVTDIKYNSPAHNSGKIEDGDEIVQINYQTVVGWQHRTVLEHLREALPDVVLTVKKRPKHTKMFGQIYMQPYRLPSKKRNMAARWAAQMPSPRAAFLTLDTEQLATGGTGSAVPDPSKSLSSEKREVLTKANPVSSASDSDSSCSDIPTPTDPKLAAREIRLYYPKPRALLQRRNTICGCEYLSLKNSDLVVPSWHERKPGIGSPTNCDPGSPSIRDKSISFGYGLEMAARPTTCIGIAGDTSTDKARRMFHEARKLKQLTEDSQREFLVDRYKPGVSKVVRFDAKEDYVMKNEKFICNVENTILETFEPIPFADEGDEDA [chain 2 R98E]

From PMC11257983 (2024)
